Tested on: MS2 coat protein
Experiment: apparent KD of MS2 coat protein; designed switch direction (-1 OFF switch, 1 ON switch): 1; higher = weaker reporter binding
Outline: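 Designed RNA switches with common flanks were transcribed on Illumina chips by stalled E. coli RNA polymerase and titrated with SNAP-549-labelled MS2 coat protein, from 0.7 or 1.5 nM doubling to 3 µM, in Tris-HCl pH 7.5 buffer with KCl, MgCl2, BSA, DTT, tRNA and Tween-20. Steps lasted 0.8–1.5 h (lowest) to 10–20 min (highest). Titrations ran without input, with 200 uM small-molecule ligand, or with an oligonucleotide input. Normalised cluster fluorescence was curve-fitted, and apparent KD is the per-design median over clusters.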

[1] = Eterna round: R95, input ligand: FMN 200 uM
[2] = Eterna round: R95, input ligand: microRNA oligo, concentration not stated
[3] = Eterna round: R95, input ligand: none
[4] = input ligand: microRNA oligo, concentration not stated

Sequence	apparent KD of MS2 coat protein [1] [nM]	apparent KD of MS2 coat protein [2] [nM]	apparent KD of MS2 coat protein [3] [nM]	apparent KD of MS2 coat protein (input ligand: FMN 200 uM) [nM]	apparent KD of MS2 coat protein [4] [nM]	apparent KD of MS2 coat protein (input ligand: none) [nM]
UUUUAUUUUUGGGUGCAAGCUUUUUGCUUACAUGAGGAUCACCCAUGUUUUUAUUUUUUAUUUUUAUUUUUAUUUUU (puzzle: Sensor for hsa-mir-208a)	51.8	60.3	86.7	–	–	–
GUGGCUGCCACAGGAUAUACCGUGUAAUUCACGGUAGAAGGGUGAAGCACUCAAAAGAGUGCUAACAUGAGGAUCACCCAUGUG [Quzaon] (Eterna round: R96, puzzle: Same State NG 1)	–	–	–	1040	170	290
GCCGCACAUGAGGAUCACCCAUGUAAUUACAUGGGAGGAUAUCAGUGCUCGAAAGAGCACUGAGAAGGCCUGUGGC [SS1 - Omei A v2] (puzzle: Same State 1)	399	31.9	39	–	–	–
GCCGCGUUUCGCGCCUACAUGAGGAUCACCCAUGUUUGUAGGCAGGAUAUCGCUCGCUUUGCGGGCGAGAAGGGCUGUUGUGGC [salish99_SSNG3_R04_019] (Eterna round: R96, puzzle: Same State NG 3)	–	–	–	45.8	41.8	54.4
AGUCCAGCCUGAGCUGGACAGAAGCAUGUACAUGAGGAUCACCCAUGUCAUGUACAAGCUUUUUGCUCGUCUUAAAA [Zipper 46 - 3] (puzzle: Sensor for hsa-mir-208a)	422	15.9	586	–	–	–
UUCUGACAUGAGGAUCACCCAUGUGAGACAUAUGGAGAAUCUCAGGAUAUCCUGAGGAUCACCCAGGAGAAGGGAGAUCCGACC (Eterna round: R96, puzzle: Same State NG 3)	–	–	–	32	43.7	45.7
UUUCUCAUGUAAGGAUAUGCAGCCGUUUCGGCUGCAGAAGGUACUAUAAUACAUGAGGAUCACCCAUGUCUCUCGCAUUGCGAG [JL SSNG1 1.48] (Eterna round: R96, puzzle: Same State NG 1)	–	–	–	263	28.9	62
UUGUUUGGUAAAAUACAUGAGGAUCACCCAUGUUAUGGUGCAGAGGAUAUGCAUGUUUGAUUGAAGCAGAAGGCUGUAAGUUGU [JR_SSNG3_Sub036] (Eterna round: R96, puzzle: Same State NG 3)	–	–	–	35.7	35.5	43.7
AUUAUCUAUGCAGGAUAUGAUUAACAUGAGGAUCACCCAUGUGGUGUUGUGAGUAAGGAGAGUGAUCAGAAGGGCAUUUUUUUU [JMF's solution 65] (Eterna round: R96, puzzle: Same State NG 2)	–	–	–	875	370	566
GGAGAACAUGAGGAUCACCCAUGUAGGCGUUAGCUAGGAUAUGCGGGAAGGAAGAGAGAAGCAGAAGGAGUAGGUA [JR_SS1_Sub031] (puzzle: Same State 1)	39.6	64.4	80	–	–	–
GCUCGAUGAACGUCCUACAUGAGGAUCACCCAUGUUCGUGGGCAGGAUAUUUACAUGCAGAGUGUAGAGAAGGGCCCAUCGAGC [SameState NG3 #64] (Eterna round: R96, puzzle: Same State NG 3)	–	–	–	67.8	74.6	165
UGUACCUUCACAGGAUAUCAUGCGAAAAUUGCGUGAGAAGGGUGAAUACGGUGUUCAUUGUUGCACAUGAGGAUCACCCAUGUA [SameState NG1 #55] (Eterna round: R96, puzzle: Same State NG 1)	–	–	–	269	74.9	259
AGAACAUGACGAGGAUAUGGAACAUGAGGAUCACCCAUGUAUGUUCCAUAACGCGAAUAAAGAAUCCAGAAGGCGUCGUGAAGA [Mat - Same State NG 2 - JL mod - D32] (Eterna round: R96, puzzle: Same State NG 2)	–	–	–	34.5	116	147
GAAGGAUGAGCGUAGGAUAUAGGAGGAGUGACAUGAGGAUCACCCAUGUGGUAGGAGGGAGGGUACUAGAAGGACGAGGAAGAGG [JR_SS2_Sub069] (Eterna round: R96, puzzle: Same State 2)	–	–	–	102	49.7	84
AACAGUCGGCGAGGAUAUGGACGUACGGACUAACCCAUACGGCUCACAUGAGGAUCACCCAUGUUCUAGAAGGCGCCACUGAAA [Soisce] (Eterna round: R96, puzzle: Same State NG 2)	–	–	–	18.1	22.8	66.7

From the supplement of paper PMC9170038
